# Reference: the supplement of paper PMC10065799, “High-throughput profiling of sequence recognition by tyrosine kinases and SH2 domains using bacterial peptide display” (eLife, 2023)
# How the values were obtained:
# [1] = target: EPHB1 (UniProt P54762); experiment: phosphorylation enrichment, bacterial display (enrichment ratio); higher = better substrate or ligand; peptides without Tyr show the background
# [2] = system: Fer (mouse); experiment: as above
# [3] = target: FGFR1 (UniProt P11362); experiment: as above
# [4] = target: Fyn (UniProt P06241); experiment: as above
# [5] = target: FGFR3 (UniProt P22607); experiment: as above
# [6] = system: AncSZ; experiment: as above
# [7] = target: MERTK (UniProt Q12866); experiment: as above
# [8] = target: Fes (UniProt P07332); experiment: as above
# [9] = system: c-Abl (mouse); experiment: as above
# [10] = target: Jak2 (UniProt O60674); experiment: as above
# [11] = target: Hck (UniProt P08631); experiment: as above
# [12] = target: EPHB2 (UniProt P29323); experiment: as above
# [13] = system: c-Src; experiment: as above
# [14] = target: SHP2-C SH2; experiment: SH2 binding enrichment of the phosphorylated peptide, bacterial display (enrichment ratio); higher = better substrate or ligand; peptides without Tyr show the background
# [15] = target: c-Src SH2; experiment: as above
# [16] = target: Grb2 SH2 (UniProt P62993); experiment: as above
# 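For SH2 binding enrichment of the phosphorylated peptide, bacterial display in this document: peptide library displayed on the E. coli surface as eCPX fusions, selected cells deep-sequenced, score is each peptide's frequency after selection divided by its frequency in the input.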
# 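For phosphorylation enrichment, bacterial display in this document: 11-residue human phosphosite peptides and single-mutation variants displayed on the E. coli surface, counted by deep sequencing, each peptide's frequency after selection divided by its frequency in the unselected input library; frequency after pTyr selection over input frequency; kinase dosed for 20-30% of maximal phosphorylation in three min.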
# Chain of EPHB2 (P29323 whole entry, looked up): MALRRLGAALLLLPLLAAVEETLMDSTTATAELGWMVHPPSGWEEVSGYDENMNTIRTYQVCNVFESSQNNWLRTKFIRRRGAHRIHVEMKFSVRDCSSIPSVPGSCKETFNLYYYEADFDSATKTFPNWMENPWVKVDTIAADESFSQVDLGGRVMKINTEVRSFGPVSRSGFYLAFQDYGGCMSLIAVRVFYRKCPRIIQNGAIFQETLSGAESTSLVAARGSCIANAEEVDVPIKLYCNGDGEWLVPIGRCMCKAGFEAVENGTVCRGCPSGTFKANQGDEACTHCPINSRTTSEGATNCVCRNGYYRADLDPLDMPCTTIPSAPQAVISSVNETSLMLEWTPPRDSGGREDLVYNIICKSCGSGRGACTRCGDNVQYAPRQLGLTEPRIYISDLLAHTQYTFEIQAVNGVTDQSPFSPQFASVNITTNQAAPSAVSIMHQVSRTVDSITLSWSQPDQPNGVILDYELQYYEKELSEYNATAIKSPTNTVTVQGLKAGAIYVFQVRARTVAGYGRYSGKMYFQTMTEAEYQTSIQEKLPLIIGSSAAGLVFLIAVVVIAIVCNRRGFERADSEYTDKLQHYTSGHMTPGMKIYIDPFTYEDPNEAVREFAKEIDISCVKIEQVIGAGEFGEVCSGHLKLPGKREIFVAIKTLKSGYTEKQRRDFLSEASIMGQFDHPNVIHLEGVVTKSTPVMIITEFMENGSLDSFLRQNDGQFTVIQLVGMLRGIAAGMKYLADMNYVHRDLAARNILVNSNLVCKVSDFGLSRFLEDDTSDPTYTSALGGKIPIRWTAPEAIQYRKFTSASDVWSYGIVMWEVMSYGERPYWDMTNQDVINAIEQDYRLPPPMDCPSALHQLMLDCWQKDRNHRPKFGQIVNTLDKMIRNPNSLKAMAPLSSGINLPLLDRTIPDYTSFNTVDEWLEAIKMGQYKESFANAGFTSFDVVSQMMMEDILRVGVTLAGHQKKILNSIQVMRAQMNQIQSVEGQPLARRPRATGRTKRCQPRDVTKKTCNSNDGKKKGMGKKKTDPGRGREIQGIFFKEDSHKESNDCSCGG
# Chain of Grb2 SH2 (P62993 whole entry, looked up, the tested form may be a part): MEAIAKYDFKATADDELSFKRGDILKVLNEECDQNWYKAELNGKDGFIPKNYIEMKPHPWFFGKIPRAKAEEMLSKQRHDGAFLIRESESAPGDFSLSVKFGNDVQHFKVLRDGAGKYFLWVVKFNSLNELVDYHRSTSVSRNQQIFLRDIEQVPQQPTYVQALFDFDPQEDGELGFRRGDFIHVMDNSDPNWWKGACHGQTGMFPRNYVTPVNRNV
# Chain of EPHB1 (P54762 whole entry, looked up): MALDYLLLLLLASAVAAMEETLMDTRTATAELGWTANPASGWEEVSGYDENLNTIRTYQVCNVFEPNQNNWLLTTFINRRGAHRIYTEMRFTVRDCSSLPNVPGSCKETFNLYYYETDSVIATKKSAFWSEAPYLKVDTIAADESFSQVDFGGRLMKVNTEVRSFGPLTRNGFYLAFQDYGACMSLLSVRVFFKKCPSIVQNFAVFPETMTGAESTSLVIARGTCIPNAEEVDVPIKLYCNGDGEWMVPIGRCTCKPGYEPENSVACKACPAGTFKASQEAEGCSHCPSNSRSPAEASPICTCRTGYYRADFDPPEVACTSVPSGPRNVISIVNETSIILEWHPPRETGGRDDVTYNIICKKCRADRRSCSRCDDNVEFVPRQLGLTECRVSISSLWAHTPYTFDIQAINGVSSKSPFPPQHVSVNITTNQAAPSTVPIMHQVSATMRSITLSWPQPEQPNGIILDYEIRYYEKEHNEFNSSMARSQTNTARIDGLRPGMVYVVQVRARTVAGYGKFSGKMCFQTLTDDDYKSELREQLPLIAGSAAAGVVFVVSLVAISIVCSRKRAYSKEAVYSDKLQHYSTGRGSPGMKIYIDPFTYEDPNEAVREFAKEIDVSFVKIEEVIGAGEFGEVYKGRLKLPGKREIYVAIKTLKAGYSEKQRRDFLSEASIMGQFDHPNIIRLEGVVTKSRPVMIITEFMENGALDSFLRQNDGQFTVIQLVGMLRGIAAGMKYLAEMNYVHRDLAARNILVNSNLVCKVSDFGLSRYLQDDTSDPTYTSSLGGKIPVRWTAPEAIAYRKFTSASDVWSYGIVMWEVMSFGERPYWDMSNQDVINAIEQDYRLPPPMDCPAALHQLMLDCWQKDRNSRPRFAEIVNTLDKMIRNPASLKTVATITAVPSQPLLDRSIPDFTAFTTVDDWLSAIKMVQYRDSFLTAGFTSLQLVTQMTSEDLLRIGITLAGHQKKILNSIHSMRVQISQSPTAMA
# Chain of MERTK (Q12866 whole entry, looked up): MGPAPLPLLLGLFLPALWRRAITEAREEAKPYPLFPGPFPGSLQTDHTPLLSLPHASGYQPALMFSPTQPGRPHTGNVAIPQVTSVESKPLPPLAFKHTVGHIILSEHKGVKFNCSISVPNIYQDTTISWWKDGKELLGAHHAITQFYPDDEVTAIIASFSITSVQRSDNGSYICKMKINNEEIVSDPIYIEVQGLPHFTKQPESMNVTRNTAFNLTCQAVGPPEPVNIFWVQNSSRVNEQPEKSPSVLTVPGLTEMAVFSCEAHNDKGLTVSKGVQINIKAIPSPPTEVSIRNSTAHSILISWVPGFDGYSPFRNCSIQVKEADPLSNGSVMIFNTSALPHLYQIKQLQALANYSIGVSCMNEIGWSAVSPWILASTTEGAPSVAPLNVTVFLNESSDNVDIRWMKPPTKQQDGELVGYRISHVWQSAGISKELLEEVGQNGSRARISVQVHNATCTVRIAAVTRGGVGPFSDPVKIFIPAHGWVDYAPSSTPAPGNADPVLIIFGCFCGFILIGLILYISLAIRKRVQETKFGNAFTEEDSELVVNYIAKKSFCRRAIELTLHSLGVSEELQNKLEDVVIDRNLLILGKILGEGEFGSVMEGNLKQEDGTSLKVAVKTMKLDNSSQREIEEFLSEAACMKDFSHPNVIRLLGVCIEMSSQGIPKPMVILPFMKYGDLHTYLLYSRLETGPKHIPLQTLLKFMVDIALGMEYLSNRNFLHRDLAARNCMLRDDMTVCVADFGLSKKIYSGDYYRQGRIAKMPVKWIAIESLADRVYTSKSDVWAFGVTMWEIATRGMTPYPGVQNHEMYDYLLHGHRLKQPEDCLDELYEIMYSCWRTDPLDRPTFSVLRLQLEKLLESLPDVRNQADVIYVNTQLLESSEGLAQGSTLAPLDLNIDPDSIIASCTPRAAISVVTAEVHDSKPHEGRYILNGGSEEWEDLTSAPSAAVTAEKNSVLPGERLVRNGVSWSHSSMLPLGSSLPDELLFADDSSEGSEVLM
# Chain of FGFR3 (P22607 whole entry, looked up): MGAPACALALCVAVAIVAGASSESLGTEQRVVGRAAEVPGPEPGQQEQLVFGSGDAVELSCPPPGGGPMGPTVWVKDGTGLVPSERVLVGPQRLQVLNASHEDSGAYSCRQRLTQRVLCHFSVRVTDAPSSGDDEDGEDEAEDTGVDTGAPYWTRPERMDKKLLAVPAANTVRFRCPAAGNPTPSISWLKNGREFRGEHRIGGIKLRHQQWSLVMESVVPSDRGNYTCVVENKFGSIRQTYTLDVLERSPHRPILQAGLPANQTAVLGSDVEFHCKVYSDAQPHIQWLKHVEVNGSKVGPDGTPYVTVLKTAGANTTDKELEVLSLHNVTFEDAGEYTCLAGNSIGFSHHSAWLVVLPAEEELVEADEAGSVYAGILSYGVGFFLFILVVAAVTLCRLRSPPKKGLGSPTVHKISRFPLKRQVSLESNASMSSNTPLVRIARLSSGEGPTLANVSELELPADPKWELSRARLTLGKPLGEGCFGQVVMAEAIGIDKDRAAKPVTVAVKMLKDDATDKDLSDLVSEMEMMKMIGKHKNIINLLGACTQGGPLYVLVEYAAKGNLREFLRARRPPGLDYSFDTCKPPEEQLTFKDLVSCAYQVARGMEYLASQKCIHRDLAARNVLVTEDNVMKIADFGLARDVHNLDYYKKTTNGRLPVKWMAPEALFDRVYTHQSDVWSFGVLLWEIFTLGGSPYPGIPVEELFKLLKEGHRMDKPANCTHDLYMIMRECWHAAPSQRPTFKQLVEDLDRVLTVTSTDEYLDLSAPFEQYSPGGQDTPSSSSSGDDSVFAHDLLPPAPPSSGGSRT
# Chain of Fes (P07332 whole entry, looked up): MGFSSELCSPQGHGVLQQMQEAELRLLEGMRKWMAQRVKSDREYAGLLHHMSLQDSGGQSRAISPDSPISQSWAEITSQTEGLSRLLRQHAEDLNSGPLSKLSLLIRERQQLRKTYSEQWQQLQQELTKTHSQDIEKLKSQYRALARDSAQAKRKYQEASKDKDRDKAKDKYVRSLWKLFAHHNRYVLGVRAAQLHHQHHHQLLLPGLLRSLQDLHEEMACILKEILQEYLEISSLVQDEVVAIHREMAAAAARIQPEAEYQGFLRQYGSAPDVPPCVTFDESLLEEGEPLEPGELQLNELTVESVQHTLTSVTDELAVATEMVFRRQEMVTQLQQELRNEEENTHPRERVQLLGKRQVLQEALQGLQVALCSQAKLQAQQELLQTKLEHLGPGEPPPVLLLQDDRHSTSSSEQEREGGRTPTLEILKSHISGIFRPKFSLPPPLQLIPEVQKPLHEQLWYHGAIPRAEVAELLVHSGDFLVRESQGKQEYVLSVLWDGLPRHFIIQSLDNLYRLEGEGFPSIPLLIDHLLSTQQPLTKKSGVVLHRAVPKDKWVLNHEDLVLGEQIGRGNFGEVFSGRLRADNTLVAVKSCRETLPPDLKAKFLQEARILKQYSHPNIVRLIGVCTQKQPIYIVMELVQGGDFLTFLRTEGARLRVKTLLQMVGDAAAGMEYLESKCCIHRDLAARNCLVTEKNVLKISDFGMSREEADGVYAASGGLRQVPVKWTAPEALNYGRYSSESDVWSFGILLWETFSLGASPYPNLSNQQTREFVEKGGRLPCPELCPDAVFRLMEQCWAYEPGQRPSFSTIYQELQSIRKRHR
Sequence,phosphorylation enrichment [1],phosphorylation enrichment [2],phosphorylation enrichment [3],phosphorylation enrichment [4],phosphorylation enrichment [5],phosphorylation enrichment [6],phosphorylation enrichment [7],phosphorylation enrichment [8],phosphorylation enrichment [9],phosphorylation enrichment [10],phosphorylation enrichment [11],phosphorylation enrichment [12],phosphorylation enrichment [13],SH2 binding enrichment [14],SH2 binding enrichment [15],SH2 binding enrichment [16]
FSEVRYMKEPY [HIPK4_Y170_V171M],0.425,0.437,0.485,0.36,0.72,0.852,0.463,0.988,0.695,0.781,0.536,0.496,0.432,0.757,0.484,1.06
NGLVACKDGKL [PMM2_Y76_Y76C],0.397,0.419,0.392,0.416,0.484,0.486,0.367,0.43,0.401,0.435,0.401,0.524,0.387,0.893,0.541,0.969
HGEAYYSEVKP [PAK5_Y182],2.27,11.2,3.13,1.96,1.93,2.68,11.2,1.62,1.79,1.7,3.85,1.8,2.99,0.795,2.44,0.769
MSSLFYANALF [HOXB7_Y6_T9A_YF],0.764,1.78,0.58,0.762,0.743,0.975,1.29,1.21,0.696,1.24,0.705,0.755,0.975,0.64,0.693,1.25
KTNVSYFGALD [CACNB4_Y103_C104F],0.438,0.464,0.509,0.554,0.634,0.789,0.426,0.848,0.59,0.653,0.484,0.43,0.438,0.63,0.443,0.847
KGELRYMHSPV [ABCD1_Y281_R285P],0.393,0.315,0.364,0.328,0.458,0.481,0.406,0.674,0.527,0.619,0.345,0.367,0.365,0.58,0.533,0.931
LLANAYIFDVQ [L1CAM_Y418_V421D_YF],0.933,0.755,0.874,1.09,1.17,1.73,0.718,1.84,0.896,1.73,0.598,0.838,1.03,0.99,0.913,1.15
AVLVQYYMEHH [PTPN11_Y80_E76V],2.43,0.516,0.753,0.673,0.868,0.987,0.89,1.21,0.708,0.821,0.875,1.32,0.596,1.87,1.18,1.52
RLLRGHDQFAF [HLA-B_Y137_YF],0.327,0.316,0.309,0.289,0.472,0.388,0.34,0.554,0.716,1.07,0.405,0.32,0.505,0.724,0.748,1.06
CEHRGSLYLAI [TEK_Y897_Y897S],0.714,0.573,0.609,0.552,0.847,1.13,1.24,1.24,0.933,1.16,0.606,0.585,0.891,0.678,0.519,0.795
KASIMYPSSNC [CXCL11_Y52_N55S],0.411,0.452,0.455,0.434,0.467,0.629,0.395,0.653,0.497,0.522,0.429,0.48,0.397,0.7,0.565,0.943
KVKPIYFHTQG [AR_Y916],0.358,0.28,0.468,0.371,0.507,0.645,0.356,0.708,0.578,0.53,0.385,0.422,0.522,1.82,1.37,1.59
RVDRDYVLKSA [HTATIP2_Y111],0.487,0.665,0.627,0.47,0.585,1.08,0.857,0.872,0.709,0.75,0.772,0.442,0.961,0.653,0.418,0.976
IKNSGYISRFL [EIF2AK3_Y585_YF],0.366,0.286,0.367,0.348,0.495,0.564,0.44,0.669,0.537,0.61,0.379,0.455,0.43,1.1,0.793,1.24
DIPIRYSIMGV [CDH4_Y205_T208M],0.473,0.421,0.481,0.455,0.695,1.13,0.523,1.14,0.723,1,0.352,0.603,0.448,2.51,1.31,0.894
AQESNYRLLRQ [SLC20A2_Y377_R382Q],0.785,0.479,0.411,0.391,0.445,0.616,0.488,0.737,0.634,0.754,0.478,0.534,0.397,1.54,0.405,0.891
NKFVAYIESQG [KDM4B_Y34_YF],0.526,0.481,0.491,0.49,0.663,0.899,0.459,1.12,0.611,0.836,0.494,0.553,0.452,0.801,0.565,0.968

Sequence,phosphorylation enrichment [1],phosphorylation enrichment [2],phosphorylation enrichment [3],phosphorylation enrichment [4],phosphorylation enrichment [5],phosphorylation enrichment [6],phosphorylation enrichment [7],phosphorylation enrichment [8],phosphorylation enrichment [9],phosphorylation enrichment [10],phosphorylation enrichment [11],phosphorylation enrichment [12],phosphorylation enrichment [13],SH2 binding enrichment [14],SH2 binding enrichment [15],SH2 binding enrichment [16]
CCNHPYRINGA [CHD7_Y1256_L1257R],0.38,0.454,0.575,0.542,0.564,0.505,0.404,0.621,0.434,0.396,0.464,0.46,0.64,0.537,0.51,0.861
SSFSRYIMMPN [LEF1_Y114_G113R_YF],0.471,0.484,0.599,0.509,0.617,0.738,0.588,0.806,0.626,0.812,0.559,0.556,0.485,0.728,0.946,0.73
DRLPSYLDKVR [KRT12_Y139_A137P],0.371,0.436,0.408,0.454,0.485,0.62,0.656,0.665,0.494,0.616,0.794,0.331,0.479,0.756,0.671,0.94
PATINYPFEKG [NDUFS8_Y84],0.65,0.595,0.521,1.04,0.565,0.88,0.556,1.18,0.491,0.776,0.342,0.218,0.674,0.587,0.663,1.09
DAVKHYMQFRK [CNGA2_Y395],0.359,0.366,0.344,0.591,0.427,0.46,0.397,0.558,0.54,0.44,0.555,0.363,0.441,0.722,0.461,0.847
DTLLEYLENPK [CYCS_Y68_M66L],0.7,0.576,0.503,0.493,0.828,1.45,0.448,1.25,0.668,1.04,0.511,0.535,0.463,0.735,0.501,0.763
VYLGAYDRFLP [SLC22A5_Y486],1.82,1.88,0.948,4.5,0.803,1.25,4.72,0.992,1.2,0.74,5.32,2.53,4.49,3.12,0.727,0.862
SVVVPNEPPEV [TP53_Y220_Y220N],0.645,0.691,0.63,0.539,0.81,1.03,0.439,1.43,0.711,1.05,0.581,0.665,0.517,0.783,0.538,0.825
LDFPEYDGVDR [CASQ1_Y43],0.633,0.719,0.59,0.75,1.37,2.6,0.556,2.01,1.48,2,1.11,0.865,1.5,0.667,0.625,1.57
SHTPSYCDEWL [RITA1_Y109_S113W],0.645,0.57,0.529,0.473,0.779,1.17,0.553,1.12,0.985,0.97,0.505,0.558,0.494,0.748,0.97,1.19
RFLRGYHQDAY [HLA-A_Y137_R138H],0.84,0.923,0.572,0.762,0.895,0.963,0.795,0.772,0.984,1.28,0.538,1.03,0.935,0.497,0.632,0.857
ALIKAYDKAVA [SMN1_Y43],0.546,0.282,0.444,0.458,0.526,0.563,0.491,0.578,0.461,0.532,0.29,0.626,0.353,0.573,0.571,0.773
MKDLTYSSLCF [ALOX5_Y446_A447S],2.89,3.84,0.997,6.62,1.14,1.48,4.91,1.35,1.53,1.21,6.78,2.67,5.91,0.617,0.555,0.756
AYRHGYFDEEM [PLEC_Y2971_R2969H],0.664,0.526,0.676,0.593,0.657,1.03,0.5,1.05,0.742,0.827,0.643,0.631,0.461,0.771,0.634,0.893
AKFPSYEKNKK [FOXL2_Y91_F90S],0.577,0.49,0.618,0.423,0.475,0.624,0.499,0.7,0.544,1.07,0.44,0.396,0.562,0.894,0.615,0.907
QWQQLYDTLNA [EIF3M_Y351],2.15,4.62,0.556,5.55,0.932,1.63,6.06,1.29,0.546,1.06,8.42,1.63,3.99,0.777,0.636,1.16
